The record followed here is patent publication US20210214414A1 (Pfizer, published 2021).

The target in test [1] is T1, Human SLIT2-N (human, UniProt O94813 31-1121, limits assumed).
T1 construct: domain: SLIT2-N (N terminal fragment); Soluble analyte in SPR, d2-labelled in HTRF, overexpressed on HEK293 cells in flow cytometry; also called human SLIT2-N (N terminal fragment)
T1 sequence (looked up): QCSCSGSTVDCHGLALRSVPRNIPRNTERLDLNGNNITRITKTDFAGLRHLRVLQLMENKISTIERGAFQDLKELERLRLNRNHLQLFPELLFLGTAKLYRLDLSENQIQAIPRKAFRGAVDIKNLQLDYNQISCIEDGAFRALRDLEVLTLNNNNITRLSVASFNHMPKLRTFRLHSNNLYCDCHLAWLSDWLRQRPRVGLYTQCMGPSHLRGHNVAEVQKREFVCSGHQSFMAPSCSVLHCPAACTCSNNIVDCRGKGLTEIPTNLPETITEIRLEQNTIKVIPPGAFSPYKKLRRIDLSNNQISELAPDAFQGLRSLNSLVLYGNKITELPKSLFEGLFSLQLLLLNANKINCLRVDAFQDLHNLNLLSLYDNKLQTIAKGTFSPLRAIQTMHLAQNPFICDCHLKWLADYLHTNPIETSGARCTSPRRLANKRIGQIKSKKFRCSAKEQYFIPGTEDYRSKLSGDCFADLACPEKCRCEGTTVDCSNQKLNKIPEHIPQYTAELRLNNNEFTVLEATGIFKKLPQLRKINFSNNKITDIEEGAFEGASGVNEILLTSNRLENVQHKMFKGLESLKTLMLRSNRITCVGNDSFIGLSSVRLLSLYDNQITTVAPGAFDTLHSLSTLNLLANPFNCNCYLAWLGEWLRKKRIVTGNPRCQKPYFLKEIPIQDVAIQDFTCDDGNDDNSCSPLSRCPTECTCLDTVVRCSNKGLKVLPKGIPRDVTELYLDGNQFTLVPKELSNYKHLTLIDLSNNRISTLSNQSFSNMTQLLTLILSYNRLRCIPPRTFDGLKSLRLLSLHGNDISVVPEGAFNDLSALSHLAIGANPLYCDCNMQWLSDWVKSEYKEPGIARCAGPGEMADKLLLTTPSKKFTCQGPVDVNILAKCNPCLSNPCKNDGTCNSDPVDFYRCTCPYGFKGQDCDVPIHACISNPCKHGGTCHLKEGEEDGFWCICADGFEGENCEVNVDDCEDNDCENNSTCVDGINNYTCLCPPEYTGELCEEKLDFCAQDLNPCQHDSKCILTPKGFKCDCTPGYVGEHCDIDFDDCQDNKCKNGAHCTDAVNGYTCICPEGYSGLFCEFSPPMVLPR
The test can be described thus: summary of the Examples (FIGS. 11-13) against ROBO2-Fc 2.2.

The target of test [2] is T1, Human SLIT2-N. The test can be described thus: HTRF competition: d2-labelled human SLIT2-N binding to ROBO2 on HEK293 cells (competitor: cell surface ROBO2) (FIG. 12). The procedure: After incubation, fluorescence at 665 nm and 620 nm was measured on an Envision multilabel plate reader. The HTRF Ratio was calculated as follows: fluorescence at 665 nm/fluorescence at 620 nm×10,000.
Background: In TR-FRET formats the signal depends on donor and acceptor labels being close together.

Test [3] has as its target T1, Human SLIT2-N. The test can be described thus: flow cytometry, AF647-labelled ROBO2-Fc S17T/R73Y on HEK293 cells overexpressing human SLIT2-N (FIG. 11). The procedure: After incubation, […] FACS buffer was added per well to wash the cells. After washing, cells were resuspended in buffer for data acquisition on a Fortessa Flow Cytometer.
In general terms: A flow cytometer gives signals particle by particle.

B1: ROBO2-Fc S17T/R73Y (Fc fusion)
chain: SRLRQEDFPPRIVEHPTDVIVSKGEPTTLNCKAEGRPTPTIEWYKDGERVETDKDDPRSHRMLLPSGSLFFLYIVHGRRSKPDEGSYVCVARNYLGEAVSRNASLEVALLRDDFRQNPTDVVVAAGEPAILECQPPRGHPEPTIYWKKDKVRIDDKEERISIRGGKLMISNTRKSDAGMYTCVGTNMVGERDSDPAELTVFERGGSGGSEPKSSDKTHTCPPCPAPEAAGAPSVFLFPPKPKDTLMISRTPEVTCVVVDVSHEDPEVKFNWYVDGVEVHNAKTKPREEQYNSTYRVVSVLTVLHQDWLNGKEYKCKVSNKALPAPIEKTISKAKGQPREPQVYTLPPSREEMTKNQVSLTCLVKGFYPSDIAVEWESNGQPENNYKTTPPVLDSDGSFFLYSKLTVDKSRWQQGNVFSCSVMHEALHNHYTQKSLSLSPGK
notes: Labelled with Alexa Fluor 647 in the flow cytometry assay; also called ROBO2-Fc 517T/R73Y; ROBO2-Fc S17T/R73Y-AF647
As to B1, the “fold increase of binding affinity to SLIT2 against SEQ ID NO: 1” value with Human SLIT2-N [1] was roughly 10 fold. The IC50 with Human SLIT2-N [2] is 1.4 nM. This molecule also showed an EC50 with Human SLIT2-N [3] of 2.5 nM.

As usually defined, the IC50 is the midpoint of a concentration-inhibition curve. Low values mean inhibition by little substance, high ones a need for much substance. In general, EC50 refers to the concentration giving half of the maximal effect. A lower EC50 goes with higher potency in that assay.
